The values below come from patent US20230331815A1 (priority 2020, published 2023).

For one experiment, the system named is SARS-CoV-2 pseudovirus. Format: cell-based.
For the next experiment, the target named is ACE2 receptor (Homo sapiens, UniProt Q9BYF1). As to the kind of experiment: Effect on ACE2 receptor enzyme activity. The settings on record: binds away from the enzyme active site. Format: biochemical. The source says: The results were proven using a small molecule inhibitor. This type of fusion protein enables both lactoferrin to bind to the HSPG on the cell surface and the receptor binding site on the S protein to bind to the ACE2 receptor on the cell surface, thereby tying up both the receptor and co-receptor on the host cell and preventing entry of the virus into the cell. […] Thus, in some embodiments, a recombinant protein as described herein, wherein the receptor binding domain of the SARS-CoV-2 spike (S) protein is fused with lactoferrin, binds to the host cell surface receptors (e.g., ACE2 receptor and HSPG) and prevent binding of the SARS-CoV-2 virus from binding and entering the host cell. This approach is different from other studies in the art, in which recombinant proteins bind to the viral particles themselves to prevent attachment of the virus to the cell. The present disclosure rather discloses a recombinant protein that binds to the host cell and effectively ties up the cell surface receptors such that the virus particles can no longer bind and infect the cell.

The conditions of experiment [1]: acidic pH conditions during inflammation; cited from earlier work.
The subject of experiment [2] is SARS-CoV pseudovirus. The settings on record: cited from earlier work.
In experiment [3] the test system is SARS-CoV pseudovirus. Format: cell-based.
The subject of another experiment is HSPG receptor. The experiment can be described thus: hLF cell membrane localization, confocal microscopy of VeroE6/T cells. It counts as cell-based, African green monkey. The settings on record: 2.5 µM hLF, cells chilled at 4° C., anti-hLF staining. As for the experimental part: To visualize cell membrane localization of human lactoferrin (hLF), VeroE6/T cells (0.75×10^5 cells/well) were chilled at 4° C. for 1 hr, incubated with 2.5 µM of hLF. Cells were washed, fixed using 4% PFA (Invitrogen), stained with anti-hLF antibody, and fluorescent image was taken under confocal microscope (FIG. 10, middle row). Cell nuclei were visualized using DAPI (FIG. 10, bottom row). To visualize the cell surface and nuclei at the same time, the confocal images above (i.e., FIG. 10, middle and bottom rows) were merged and are presented in FIG. 10, top row. […] To see the effect of heparin on the binding of hLF to the cell surface (specifically the HSPG receptor), cells were co-incubated with hLF and heparin (H), and the confocal image was taken (FIG. 10, right column).

Sequence of ACE2 receptor (Q9BYF1 18-805): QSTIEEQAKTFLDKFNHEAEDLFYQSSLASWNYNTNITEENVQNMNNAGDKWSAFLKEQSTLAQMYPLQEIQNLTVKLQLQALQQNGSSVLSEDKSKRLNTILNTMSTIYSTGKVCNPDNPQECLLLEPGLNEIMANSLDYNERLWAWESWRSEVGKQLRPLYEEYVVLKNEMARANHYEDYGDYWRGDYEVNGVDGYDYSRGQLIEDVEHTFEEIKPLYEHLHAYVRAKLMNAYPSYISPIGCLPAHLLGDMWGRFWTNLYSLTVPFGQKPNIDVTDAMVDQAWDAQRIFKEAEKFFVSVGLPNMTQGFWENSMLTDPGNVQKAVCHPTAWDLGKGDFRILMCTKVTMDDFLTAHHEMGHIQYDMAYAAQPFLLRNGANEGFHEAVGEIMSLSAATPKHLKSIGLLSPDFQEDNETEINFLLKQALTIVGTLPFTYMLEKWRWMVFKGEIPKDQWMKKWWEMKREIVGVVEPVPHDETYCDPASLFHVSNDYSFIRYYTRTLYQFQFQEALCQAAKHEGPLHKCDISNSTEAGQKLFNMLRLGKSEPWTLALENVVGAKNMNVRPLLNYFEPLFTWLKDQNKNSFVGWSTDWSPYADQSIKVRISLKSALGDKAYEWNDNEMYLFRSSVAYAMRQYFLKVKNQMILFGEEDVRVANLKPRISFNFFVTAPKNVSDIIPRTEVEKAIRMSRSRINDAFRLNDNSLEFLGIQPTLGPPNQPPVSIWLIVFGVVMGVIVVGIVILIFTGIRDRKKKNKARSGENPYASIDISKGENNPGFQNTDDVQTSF

B1: Recombinant lactoferrin: recombinant lactoferrin expressed or manufactured in other species, e.g., plant species such as rice (e.g., Ventria Bioscience) (protein, UniProt P02788 20-710, looked up)
Lactotransferrin: GRRRSVQWCAVSQPEATKCFQWQRNMRKVRGPPVSCIKRDSPIQCIQAIAENRADAVTLDGGFIYEAGLAPYKLRPVAAEVYGTERQPRTHYYAVAVVKKGGSFQLNELQGLKSCHTGLRRTAGWNVPIGTLRPFLNWTGPPEPIEAAVARFFSASCVPGADKGQFPNLCRLCAGTGENKCAFSSQEPYFSYSGAFKCLRDGAGDVAFIRESTVFEDLSDEAERDEYELLCPDNTRKPVDKFKDCHLARVPSHAVVARSVNGKEDAIWNLLRQAQEKFGKDKSPKFQLFGSPSGQKDLLFKDSAIGFSRVPPRIDSGLYLGSGYFTAIQNLRKSEEEVAARRARVVWCAVGEQELRKCNQWSGLSEGSVTCSSASTTEDCIALVLKGEADAMSLDGGYVYTAGKCGLVPVLAENYKSQQSSDPDPNCVDRPVEGYLAVAVVRRSDTSLTWNSVKGKKSCHTAVDRTAGWNIPMGLLFNQTGSCKFDEYFSQSCAPGSDPRSNLCALCIGDEQGENKCVPNSNERYYGYTGAFRCLAENAGDVAFVKDVTVLQNTDGNNNEAWAKDLKLADFALLCLDGKRKPVTEARSCHLAMAPNHAVVSRMDKVERLKQVLLHQQAKFGRNGSDCPDKFCLFQSETKNLLFNDNTECLARLHGKTTYEKYLGPQYVAGITNLKKCSTSPLLEACEFLRK
modifications: expressed in rice
Consider B1, for which the “anti-viral effective concentration range” value with SARS-CoV-2 pseudovirus (virus not named) was “effective in the low µM range”.

B2: hLF: human lactoferrin (LF), 711 amino acids, SEQ ID NO:4; 70-80 kDa basic protein of the transferrin family (protein, listed as Homo sapiens)
chain: MKLVFLVLLFLGALGLCLAGRRRRSVQWCAVSQPEATKCFQWQRNMRKVRGPPVSCIKRDSPIQCIQAIAENRADAVTLDGGFIYEAGLAPYKLRPVAAEVYGTERQPRTHYYAVAVVKKGGSFQLNELQGLKSCHTGLRRTAGWNVPIGTLRPFLNWTGPPEPIEAAVARFFSASCVPGADKGQFPNLCRLCAGTGENKCAFSSQEPYFSYSGAFKCLRDGAGDVAFIRESTVFEDLSDEAERDEYELLCPDNTRKPVDKFKDCHLARVPSHAVVARSVNGKEDAIWNLLRQAQEKFGKDKSPKFQLFGSPSGQKDLLFKDSAIGFSRVPPRIDSGLYLGSGYFTAIQNLRKSEEEVAARRARVVWCAVGEQELRKCNQWSGLSEGSVTCSSASTTEDCIALVLKGEADAMSLDEGYVYTAGKCGLVPVLAENYKSQQSSDPDPNCVDRPVEGYLAVAVVRRSDTSLTWNSVKGKKSCHTAVDRTAGWNIPMGLLFNQTGSCKFDEYFSQSCAPGSDPRSNLCALCIGDEQGENKCVPNSNERYYGYTGAFRCLAENAGDVAFVKDVTVLQNTDGNNNEAWAKDLKLADFALLCLDGKRKPVTEARSCHLAMAPNHAVVSRMDKVERLKQVLLHQQAKFGRNGSDCPDKFCLFQSETKNLLFNDNTECLARLHGKTTYEKYLGPQYVAGITNLKKCSTSPLLEACEFLRK
Take B2: the “effect on ACE2 receptor enzyme activity / cellular function” value with ACE2 receptor was “does not interfere with ACE2 receptor activity”. For the same molecule, the “iron affinity relative to transferrin” value in experiment [1] was 30 times higher than transferrin. The SARS pseudovirus entry entry with SARS-CoV pseudovirus [2] was “prevents SARS pseudovirus entry”. Moreover, the “entry of SARS-CoV virus into cells” value in the experiment on SARS-CoV pseudovirus [3] is “prevent entry”. For the same molecule, in the experiment on SARS-CoV-2 pseudovirus (VeroE6 or VeroE6/Tmprss2), the “inhibition of SARS-CoV-2 infection in target cells” value is listed as “efficient inhibitor”. In addition, the “entry of SARS-CoV-2 virus into cells” value in the experiment on SARS-CoV-2 pseudovirus (in vitro) is listed as “prevent entry”. Besides, the “binding to HSPG receptor on the cell membrane” value in the experiment on HSPG receptor is listed as “binds the HSPG receptor on the cell membrane”.
